The target of one experiment is ICAM-1 (Homo sapiens, UniProt P05362). In words: 125I-labeled γ3 binding to ICAM-1 CHO transfectants. Here is the method: A variant polypeptide γ3 (KYG-γ3) duplicating the fibrinogen γ chain sequence 117-133 N^117NQKIVNLKEKVAQLEA^133 (SEQ ID NO 2) was synthesized with the addition of Lys-Tyr-Gly residues at the amino terminus to facilitate radiolabeling of the polypeptide (KYGN^117NQKIVNLKEKVAQLEA^133, SEQ ID NO 4). The variant γ3 and L10 polypeptides were synthesized as described in Example 7A. Typically, 2 mg of KYG-γ3 were iodinated with 5 mCi ^125I-Na (Amersham, Arlington Heights, Ill.) by the IODO-GEN method (Fraker et al., Biochem Biophys Res Commun., 80:849-857, (1978)) for 45 min at 4° C. Free radioactivity was separated from polypeptide-bound radioactivity by gel-filtration over a Bio-Gel P-2 column (Bio-Rad, Richmond, Va.) which had been preequilibrated with PBS, pH 7.2, containing 0.01% BSA, with a flow rate of 0.2 ml/sec.
Confluent monolayers of ICAM-1 CHO transfectants or wild type (WT) CHO cells were incubated in serum-free RPMI 1640 medium with increasing concentrations of ^125I-labeled γ3 peptide (10-150 μg/ml) in the presence of 1 mM CaCl2 and 1 mM MgCl2 for 45 min at 22° C. Cells were washed with three rapid changes of serum-free RPMI 1640, solubilized in 10% SDS, and radioactivity associated under the various conditions tested was quantitated in a beta-counter. […]

A further experiment deals with WT CHO cells. Briefly: 125I-labeled γ3 binding to wild type CHO cells. The conditions noted are these: 50 μg/ml. Also on record: species or system Chinese Hamster. Here is the method:
Confluent monolayers of ICAM-1 CHO transfectants or wild type (WT) CHO cells were incubated in serum-free RPMI 1640 medium with increasing concentrations of ^125I-labeled γ3 peptide (10-150 μg/ml) in the presence of 1 mM CaCl2 and 1 mM MgCl2 for 45 min at 22° C. Cells were washed with three rapid changes of serum-free RPMI 1640, solubilized in 10% SDS, and radioactivity associated under the various conditions tested was quantitated in a beta-counter. Non specific binding was assessed in the presence of a 100-fold molar excess unlabeled γ3 peptide, or control peptide L10 added at the start of incubation, and was subtracted from the total as described above.

Experiment [1] addresses T1, ICAM-1 receptor on JY lymphocytes (Homo sapiens, UniProt P05362).
T1 construct: endogenous in cells; host or cells: JY lymphocytes (51Cr-labelled)
Briefly: Inhibition of JY lymphocyte adhesion to γ3-coated plates by monoclonal antibodies. Format: cell-based. The conditions noted are these: plates coated with 20 μ/ml peptide, no antibody. Here is the method:
Binding inhibition assays were performed using radiolabeled ICAM-1^+ JY lymphocytes and the γ3 polypeptide. […] The peptides used in this assay were the γ3 and irrelevant polypeptide L10 prepared as described in Example 7A.
Ninety-six well assay plates were coated with 20 μ/ml of the polypeptides γ3 and L10 and the ^51Cr-labeled JY lymphocytes were prepared as described above. The ^51Cr-labeled JY lymphocytes were preincubated with saturating concentrations (25 μg/ml) of monoclonal antibodies anti-ICAM-1 1G12, 2D5, or 6E6; or anti-EPR-1 6A11 before incubation in the […] plates. Binding of radiolabelled JY lymphocytes was measured after a 45 min maintenance period in the presence of the monoclonal antibodies in the γ3 peptide-coated plate. Background binding was assessed by the incubation of ^51Cr-labeled JY lymphocytes which had not been preincubated with a monoclonal antibody in the L10 peptide-coated plate. Data are the mean ± S.D. of replicates of two independent experiments.

The test system of another experiment is ICAM-1+ JY lymphocytes. Briefly: Adhesion of 51Cr-labeled JY lymphocytes to peptide-coated wells. The format is cell-based. Particulars: wells coated with 1-100 μg/ml peptide, 45 min at 37° C. Here is the method:
Ninety-six well assay plates (Costar, Cambridge, Mass.) were coated with increasing concentrations (1-100 μg/ml) of the polypeptides γ3 and L10 in PBS, pH 7.2, for 18 h at 4° C. Wells were washed in PBS, pH 7.2 and blocked with 3% gelatin for 60 min at 37° C.
Serum-free suspensions of JY lymphocytes were labeled with 0.5 mCi ^51Cr (Na2CrO4, specific activity 487.4 mCi/mg, E. I., DuPont de Nemours, Wilmington, Del.) for 2 h at 37° C., with a final incorporation of 0.2-4 cpm/cell (Languino, et al., supra). Aliquots of ^51Cr-labeled JY lymphocytes at 1×10^6/ml were added to peptide-coated wells for 45 min at 37° C., washed, solubilized in 20% SDS, and radioactivity associated under the various conditions was determined in a scintillation beta-counter. The number of attached cells was quantitated by dividing the cpm harvested by the cpm/cell. Data are the mean ± S.D. of two independent experiments.

For experiment [2], the system named is HUVEC. Briefly: Adhesion of terminally-differentiated 51Cr-labeled HL-60 cells to resting HUVEC with plasma adhesive proteins. Format: cell-based, human. The conditions noted are these: for adhesion of differentiated HL-60 cells to HUVEC relative to cells not equilibrated with an adhesive protein: 150 μ/ml protein, fMLP 10 μM, 30 min at 22° C. Here is the method:
The effect of fibrinogen, vitronectin, and fibronectin on the interaction of terminally-differentiated HL-60 and monocytic THP-1 cells with HUVEC was determined as described in Languino, supra. Briefly, serum-free suspensions of HL-60 or THP-1 cells were labeled with ^51Cr as described in Example 81A to a final incorporation of 0.2-4 cpm/cell. After washes in PBS, pH 7.2, aliquots of the HL-60 cells were resuspended in serum-free RPMI 1640 at 1.5×10^6/ml and stimulated with 10 μM of the chemoattractant formyl-methionyl-leucyl-phenylalanine (fMLP, Sigma, St. Louis, Mo.) and equilibrated with 150 μ/ml fibrinogen, vitronectin, or fibronectin in the presence of 1 mM CaCl2 for 20 min at 22° C. Equilibrated HL-60 were added to resting HUVEC monolayers that had been previously incubated with fresh complete culture medium 12 hours prior to the experiment and incubated for an additional 30 min at 22° C., washed,solubilized in 10-20% SDS, and associated radioactivity determined in a scintillation β-counter. The number of attached cells was quantitated by diving the cpm harvested by the cpm/cell. Under these experimental conditions, there was no aggregation of the various leukocyte subpopulations in the presence of the different plasma adhesive proteins, nor disruption of the HUVEC monolayers at any time interval tested, as judged by routine microscopic examination of the adhesion field. Data are the mean ± S.D. of triplicates from a representative experiment.
Experimental conditions were the same as described in Example 9C1 except that the ^51Cr-labeled HL-60 cells were equilibrated with 40 μg/ml vitronectin or control protein transferrin and added to resting HUVEC for increasing time intervals between 10 and 60 minutes at 22° C. before measurement of leukocyte adhesion.
Experimental conditions were the same as described in Example 9C1 except that the ^51Cr-labeled HL-60 cells were equilibrated with several concentrations of vitronectin ranging from 1.84 to 150 μg/ml and prior to incubation to resting HUVEC.

The subject of experiment [3] is HUVEC. Briefly: Iodinated D30 binding to HUVEC monolayers and its competition. Also on record: species or system human. The conditions noted are these: 50 fold molar excess of cold fibrinogen; myoglobin as nonspecific protein. Here is the method: Binding assays described above in Example 3A2) were also performed with the fibrinogen homolog, D30, to determine if that region of fibrinogen also immunoreacted with HUVEC. Since D30 was known to bind to leukocytes via the Mac-1 receptor as described by Altieri et al., J. Biol. Chem., 265:12119-12122 (1990), these experiments were performed to determine if regions of fibrinogen mediating the binding of leukocytes to HUVEC are contained within the D30 fragment. For this analysis, the D30 fragment of fibrinogen prepared in Example 1B was labelled with ^125I as described for labelling of fibrinogen above. Iodinated D30 was admixed to HUVEC monolayers at a concentration of 10 μg/ml to form a binding complex. After washing the cells to remove the unbound D30 as described in Example 3A2) above, the cells were solubilized and the amount of bound radioactivity was determined. The binding of D30 to HUVEC was maximal at 120 minutes of the maintenance period with approximately 60,000 cpm.

The subject of experiment [4] is HUVEC. Briefly: Inhibition of 125I-labelled fibrinogen binding to HUVEC by cold fibrinogen, anti-VNR antibodies and RGD/RGE peptides. Also on record: species or system human. The conditions noted are these: anti-VNR antibody 25 μg/ml, 20 minutes at 37° C. preincubation. Here is the method:
Binding of ^125I-labelled fibrinogen binding to HUVEC assays were performed in the presence of 50 molar excess of unlabelled fibrinogen in order to confirm the specificity of binding as shown in Example 3A. The binding assay was performed as described in Example 3A with the exception that unlabelled fibrinogen was admixed to HUVEC at a 50 molar excess (approximately […] fibrinogen) concurrently with 50 μg/ml of ^125I-labelled fibrinogen. The protein-cell admixtures were maintained at 22° C. for 30 minutes to allow for binding of fibrinogen to HUVEC. In addition to cold fibrinogen, a 50 fold molar excess of BSA was separately admixed as a control. The amount of fibrinogen bound under the above conditions was quantitated as described in Example 3A. The uninhibited total binding of ^125I-labelled fibrinogen saturated after 30 minutes at approximately 4000 cpm per well. […] The binding of fibrinogen to the HUVEC surface fibrinogen receptor is therefore specific.
The specificity of binding to an RGD-independent fibrinogen receptor was confirmed in competition assays performed as described above in the presence of monoclonal antibodies against the beta subunit of the RGD-dependent VNR and in the presence of RGD-containing peptides. For the assays in which the ability of anti-VNR monoclonal antibodies, designated mAb 609 and mAb 7E3, to inhibit the binding of ^125I-labelled fibrinogen to HUVEC, the antibodies were separately maintained at a concentration of 25 μg/ml with HUVEC for 20 minutes at 37° C. After the maintenance period, the antibody-treated HUVEC were washed once with serum-free RPMI 1640 to remove any unbound antibody. Labelled fibrinogen was then admixed to the treated HUVEC at a concentration of 50 μg/ml in the presence of 2.5 mM CaCl2 and […] PPack. The resultant admixtures were maintained for 10-30 minutes at 22° C. The fibrinogen-treated HUVEC were then washed, solubilized and counted as described in Example 3A.
To confirm that the fibrinogen binding site on HUVEC was not RGD dependent, inhibition assays performed as described above for inhibiting with antibodies except that they were done in the presence of 1.0 mM of an RGD-containing peptide. A control RGE-containing peptide was also included in the assay. At selected time points over the time course of one hour, the HUVEC were harvested as described in Example 3A.

From US6737058B2, “Methods for inhibiting endothelial cell and fibrinogen mediated inflammation using fibrinogen specific antibodies” (The Scripps Research Institute, priority 1992, dated 2004) come the findings set out here.

No end group written: not given here.

Sequence of ICAM-1 (P05362 28-532): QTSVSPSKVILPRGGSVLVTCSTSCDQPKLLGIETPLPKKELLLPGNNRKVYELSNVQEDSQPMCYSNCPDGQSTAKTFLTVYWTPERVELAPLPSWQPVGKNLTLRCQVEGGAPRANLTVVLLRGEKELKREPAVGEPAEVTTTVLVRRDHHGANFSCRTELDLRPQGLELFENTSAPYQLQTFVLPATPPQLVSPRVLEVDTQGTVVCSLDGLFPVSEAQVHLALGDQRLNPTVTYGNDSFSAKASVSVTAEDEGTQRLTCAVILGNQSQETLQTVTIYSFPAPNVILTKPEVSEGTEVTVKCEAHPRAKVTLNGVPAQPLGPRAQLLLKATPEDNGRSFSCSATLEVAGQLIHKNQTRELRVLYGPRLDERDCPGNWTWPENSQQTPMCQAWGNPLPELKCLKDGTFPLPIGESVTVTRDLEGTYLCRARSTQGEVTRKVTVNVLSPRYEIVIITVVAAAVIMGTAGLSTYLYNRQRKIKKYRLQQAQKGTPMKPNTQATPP
T1 sequence (P05362 28-532): as above

Turning to “KYGN^117NQKIVNLKEKVAQLEA^133 (KYGNNQKIVNLKEKVAQLEA; also: 125I radiolabel) [KYG-γ3]”, the “binding of 125I-labeled γ3 polypeptide to ICAM-1 CHO transfectants” value in the experiment with ICAM-1 (10-150 μg/ml, 1 mM CaCl2 and 1 mM MgCl2, 45 min at 22° C.) is “bound to ICAM-1 CHO transfectants in a specific and dose-dependent fashion”. The “binding of 125I-labeled γ3 polypeptide to WT CHO cells” value with WT CHO cells is “did not bind”.
For the molecule “LGGAKQAGDV (OTHER INFORMATION: synthesized) [L10, reference compound]”, the “JY lymphocyte adhesion to L10-coated plate (background)” value in experiment [1] is “did not support significant JY lymphocyte adhesion”. Besides, in the experiment with ICAM-1+ JY lymphocytes, the “adhesion of JY lymphocytes to immobilized peptide” value is recorded as “did not support lymphocyte adhesion at any concentration tested”.
As for “NNQKIVNLKEKVAQLEA (OTHER INFORMATION: synthesized) [γ3]”, in the experiment on ICAM-1+ JY lymphocytes, the “adhesion of JY lymphocytes to immobilized peptide” value is on record as “strongly adhered”. Besides, the “competition of 125I-labeled γ3 polypeptide binding” value in the experiment with ICAM-1 (100-fold molar excess unlabeled peptide) is given as “competitively inhibited”.
Take fibronectin: the “adhesion of differentiated HL-60 cells to HUVEC relative to cells not equilibrated with an adhesive protein” value in the experiment with HUVEC [2] is listed as “did not result in an increase in adhesion”.

B1: Myoglobin: a nonspecific protein (protein, UniProt P68082 2-154, looked up)
Myoglobin: GLSDGEWQQVLNVWGKVEADIAGHGQEVLIRLFTGHPETLEKFDKFKHLKTEAEMKASEDLKKHGTVVLTALGGILKKKGHHEAELKPLAQSHATKHKIPIKYLEFISDAIIHVLHSKHPGDFGADAQGAMTKALELFRNDIAAKYKELGFQG
Take B1: the “competition of D30 binding to HUVEC” value in the experiment on HUVEC [3] is recorded as “did not inhibit”.

B2: mAb 609: anti-VNR monoclonal antibody (antibody, V domains shown)
VH: EVQLEESGGGLVKPGGSLKLSCAASGFAFSSYDMSWVRQIPEKRLEWVAKVSSGGGSTYYLDTVQGRFTISRDNAKNTLYLQMSSLNSEDTAMYYCARHNYGSFAYWGQGTLVTVSA
VL: ELVMTQTPATLSVTPGDSVSLSCRASQSISNHLHWYQQKSHESPRLLIKYASQSISGIPSRFSGSGSGTDFTLSINSVETEDFGMYFCQQSNSWPHTFGGGTKLEIKRA
On to B2, for which the “inhibition of 125I-labelled fibrinogen binding to HUVEC (FIG. 7)” value in the experiment with HUVEC [4] was “no inhibitory effect”.

B3: vitronectin: human vitronectin purchased from GIBCO or donated (protein, UniProt P04004 20-478, looked up)
Vitronectin: DQESCKGRCTEGFNVDKKCQCDELCSYYQSCCTDYTAECKPQVTRGDVFTMPEDEYTVYDDGEEKNNATVHEQVGGPSLTSDLQAQSKGNPEQTPVLKPEEEAPAPEVGASKPEGIDSRPETLHPGRPQPPAEEELCSGKPFDAFTDLKNGSLFAFRGQYCYELDEKAVRPGYPKLIRDVWGIEGPIDAAFTRINCQGKTYLFKGSQYWRFEDGVLDPDYPRNISDGFDGIPDNVDAALALPAHSYSGRERVYFFKGKQYWEYQFQHQPSQEECEGSSLSAVFEHFAMMQRDSWEDIFELLFWGRTSAGTRQPQFISRDWHGVPGQVDAAMAGRIYISGMAPRPSLAKKQRFRHRNRKGYRSQRGHSRGRNQNSRRPSRATWLSLFSSEESNLGANNYDDYRMDWLVPATCEPIQSVFFFSGDKYYRVNLRTRRVDTVDPPYPRSIAQYWLGCPAPGHL
As to B3, the “time and dose dependency of vitronectin-mediated increase in HL-60 adhesion” value with HUVEC [2] (10 to 60 minutes, 1.84 to 150 μg/ml) was “time-and dose-dependent manner”. For the same molecule, the “adhesion of differentiated HL-60 cells to HUVEC relative to cells not equilibrated with an adhesive protein” value in the experiment with HUVEC [2] is “three to four-fold”. This molecule had a vitronectin concentration at which increase in HL-60 adhesion was saturated in the experiment with HUVEC [2] (vitronectin 1.84 to 150 μg/ml) of 50 µg/mL.
